Where no end group is shown, it is not given here.
Tests used:
[1] = target: T1, VEGF165R on 231 cells (Homo sapiens, UniProt O14786); test: Inhibition of 125I-VEGF165 binding to MDA-MB-231 (231) cells
T1 construct: to 231 cells which express only VEGF165R; endogenous in cells; host or cells: MDA-MB-231 (ATCC)
Method: (§1) FIGS. 3A-3C. Inhibition of ^125I-VEGF165 binding to HUVEC, MDA MB 231 cells, and PAE-KDR cells by GST-EX 7+8. ^125I-VEGF165 (5 ng,/ml) was bound to subconfluent cultures of HUVEC (3A), MDA MB 23 1 cells (3B), and PAE-KDR cells (3C) in 48-well dishes in the presence of increasing amounts of GST-Ex 7+8 (closed 20 square) or control GST protein (open squares). At the end of a 2-h incubation, the cells were washed and lysed, and the cell-associated radioactivity was determined with a γ-counter. The counts obtained are expressed as the percentage of the counts obtained in the presence of PBS without addition of GST or fusion protein.
(§2) Binding and cross-linking experiments using 125I-VEGF165 and 125I-VEGF121 were performed at described previously (Gitay-Goren, et al., J. Biol. Chem., 287, 6003-6096 (1992), Soker, et al., J: Biol. Chem., 271,5761-5767 (1996)). VEGF binding was quantified by measuring the cell-associated radioactivity in a y-counter (Beckman, Gamma 5500). The counts represent the average of three walls. All experiments were repeated at least three times, and similar results were obtained. 125I-VEGF cross-linked complexes were resolved by 6% SDS-PAGE, and the gels were exposed to a phosphor screen and scanned after 24 h by a PhosphorImager (Molecular Dynamics). Subsequently, the gels were exposed to x-ray film.

[2] = target: T2, KDR/Flk-1 and VEGF165R on HUVEC (Homo sapiens, UniProt O14786); test: Inhibition of 125I-VEGF165 binding to HUVEC; conditions: 125I-VEGF165 5 ng/ml, increasing concentrations of fusion protein, FIG. 3A
T2 construct: HUVEC, which express both KDR/Flk-1 and VEGF165R; endogenous in cells; host or cells: HUVEC (ATCC)
T2 sequence (O14786 22-923): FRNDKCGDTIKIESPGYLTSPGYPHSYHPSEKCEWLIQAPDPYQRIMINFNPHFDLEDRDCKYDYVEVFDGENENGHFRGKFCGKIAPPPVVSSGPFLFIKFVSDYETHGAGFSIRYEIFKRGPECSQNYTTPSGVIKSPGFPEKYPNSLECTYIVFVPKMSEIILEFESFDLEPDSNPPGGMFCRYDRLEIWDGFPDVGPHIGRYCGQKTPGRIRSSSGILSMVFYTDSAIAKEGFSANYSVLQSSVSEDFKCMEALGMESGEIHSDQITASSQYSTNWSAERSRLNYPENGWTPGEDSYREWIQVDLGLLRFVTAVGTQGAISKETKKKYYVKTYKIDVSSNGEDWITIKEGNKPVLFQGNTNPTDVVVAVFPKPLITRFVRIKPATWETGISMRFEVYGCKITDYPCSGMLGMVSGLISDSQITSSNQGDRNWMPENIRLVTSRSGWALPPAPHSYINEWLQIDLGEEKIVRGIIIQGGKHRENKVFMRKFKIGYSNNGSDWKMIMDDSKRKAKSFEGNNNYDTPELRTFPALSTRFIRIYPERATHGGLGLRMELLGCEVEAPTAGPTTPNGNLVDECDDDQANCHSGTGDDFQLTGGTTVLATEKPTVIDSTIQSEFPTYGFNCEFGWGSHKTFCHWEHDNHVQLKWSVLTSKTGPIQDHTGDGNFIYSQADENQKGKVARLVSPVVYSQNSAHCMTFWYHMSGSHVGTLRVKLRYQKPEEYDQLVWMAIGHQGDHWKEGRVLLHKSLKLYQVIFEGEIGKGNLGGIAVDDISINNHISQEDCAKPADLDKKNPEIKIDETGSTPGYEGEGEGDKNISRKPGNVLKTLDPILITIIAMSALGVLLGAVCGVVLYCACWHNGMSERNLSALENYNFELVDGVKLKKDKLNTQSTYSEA
Method: as §1
FIGS. 5A and 5B. Localization of a core inhibitory region within exon 7. GST-Ex 7 fusion proteins containing full-length exon 7-encoded domain or truncations at the N-terminal and C-terminal ends were prepared as described in the Examples. ^125I-VEGF165 (5 ng/ml) was bound to subconfluent HUVEC cultures as described in FIG. 3, in the presence of increasing concentrations of the GST fusion proteins. At the end of a 2-h incubation, the cells were washed and lysed, and the cell-associated radioactivity was determined with a y counter. The counts obtained are expressed as percentage of the counts obtained in the presence of PBS without fusion protein B, the amino acid sequences of VEGF exon 7 derivatives. These derivatives were prepared to contain the first cysteine residue of exon 8 at their C termini to keep an even number of cysteine residue. FIG. 5B discloses SEQ ID NO: 19.
as §2

[3] = target: KDR/Flk-1 (Homo sapiens, UniProt P35968); test: Direct binding/cross-linking of 125I-GST-Ex 7 to HUVEC: KDR/Flk-1; parameters: HUVEC, which express both KDR/Flk-1 and VEGF165R; endogenous in cells; host or cells: HUVEC (ATCC); conditions: cross-linking, 1 ug/ml heparin, FIG. 1 lane 3
Chain of KDR/Flk-1 (P35968 20-1356): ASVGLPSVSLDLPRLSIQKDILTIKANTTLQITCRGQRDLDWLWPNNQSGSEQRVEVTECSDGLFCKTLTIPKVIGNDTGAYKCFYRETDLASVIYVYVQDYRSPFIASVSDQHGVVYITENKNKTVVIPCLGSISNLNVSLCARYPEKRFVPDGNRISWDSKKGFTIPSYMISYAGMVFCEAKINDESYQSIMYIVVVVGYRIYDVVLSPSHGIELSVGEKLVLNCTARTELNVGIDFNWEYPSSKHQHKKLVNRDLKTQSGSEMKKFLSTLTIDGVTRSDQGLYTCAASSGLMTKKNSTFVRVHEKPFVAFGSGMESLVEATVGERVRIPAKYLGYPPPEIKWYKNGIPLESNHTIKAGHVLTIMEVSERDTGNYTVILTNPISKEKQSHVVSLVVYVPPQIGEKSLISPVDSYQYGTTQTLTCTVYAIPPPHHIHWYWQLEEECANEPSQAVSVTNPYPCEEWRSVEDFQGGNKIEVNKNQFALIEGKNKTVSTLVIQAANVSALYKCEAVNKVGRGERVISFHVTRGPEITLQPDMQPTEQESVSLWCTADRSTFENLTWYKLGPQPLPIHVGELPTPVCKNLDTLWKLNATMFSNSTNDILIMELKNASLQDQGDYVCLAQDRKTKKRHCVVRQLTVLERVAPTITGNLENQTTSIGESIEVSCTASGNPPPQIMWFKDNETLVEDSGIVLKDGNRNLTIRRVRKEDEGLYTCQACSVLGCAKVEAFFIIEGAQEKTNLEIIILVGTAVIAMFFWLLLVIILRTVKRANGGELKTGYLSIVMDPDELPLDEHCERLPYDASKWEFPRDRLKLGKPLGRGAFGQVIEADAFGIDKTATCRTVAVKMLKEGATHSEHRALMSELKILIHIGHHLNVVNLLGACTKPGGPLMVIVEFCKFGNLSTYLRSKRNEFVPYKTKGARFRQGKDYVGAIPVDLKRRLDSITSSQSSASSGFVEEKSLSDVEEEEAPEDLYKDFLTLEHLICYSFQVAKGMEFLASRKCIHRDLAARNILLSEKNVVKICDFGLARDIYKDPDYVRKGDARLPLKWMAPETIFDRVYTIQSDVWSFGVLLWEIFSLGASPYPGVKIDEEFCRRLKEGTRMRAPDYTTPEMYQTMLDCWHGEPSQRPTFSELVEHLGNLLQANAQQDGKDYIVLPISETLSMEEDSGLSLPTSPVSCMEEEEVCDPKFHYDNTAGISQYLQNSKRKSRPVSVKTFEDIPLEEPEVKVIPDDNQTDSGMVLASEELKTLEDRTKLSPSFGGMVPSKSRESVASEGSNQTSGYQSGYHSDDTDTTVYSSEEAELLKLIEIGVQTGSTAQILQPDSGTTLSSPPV
Method: FIG. 1. Cross-linking of 1 ^125I-VEGF165, ^125I-VEGF121 and ^125I-GST-EX 7 to HUVEC. ^125I-VEGF165 (5 ng/ml) (lane 1) or ^125I-VEGF121 (10 ng/ml) (lane 2) or ^125I-GST-EX 7 (50 nglml) (lane 3) were bound to subconfluent cultures of HUVEC in 6-cm dishes. The binding was carried out in the presence of 1 ug/ml heparin. At the end of a 2-H incubation, each ^125I-VEGF isoform was chemically cross-linked to the cell surface. The cells were lysed and proteins were resolved by 6% SDS-PAGE. The polyacrylamide gel was dried and exposed to x-ray film.
as §2

[4] = tested on: VEGF121-induced proliferation of HUVEC; test: Inhibition of VEGF121-stimulated HUVEC proliferation; assay type: cell-based, human
Method: (§3) FIG. 7. GST-Ex 7+8 fusion protein inhibits VEGF165 and VEGF121-stimulated HUVEC proliferation. Increasing concentration of VEGF165 (circles) or VEGF121 (square) with 15 ug/ml GST-Ex 7+8 (closed symbols) or without GST-Ex 7+8 (open symbols) were added to HUVEC, and [*H]thymidine incorporation into the DNA was measured as in FIG. 2. The results represent the average counts of three wells and the standard deviations were determined.
(§4) HUVEC were seeded in gelatin-coated 96-well dishes at 4,000 cells/200 Ul/well in M-199 containing 5% FCS and GPS. After 24 H, VEGF isoforms and VEGF exon 7-GST fusion proteins were added to the wells at the same time. The cells were incubated for 72 h, and [3H]thymidine (1 pC/ml) was added for 10-12 h. The medium was aspirated, and the cells were trypsinized and harvested by an automatic cell harvester (TOMTEC) and loaded onto Filtermats (Wallac). The Filtermats were scanned and cpm were determined by a MicroBeta counter (Wallac). The results represent the average of samples assayed in triplicate, and the standard derivations were determined. All experiments were repeated at least three times and similar results were obtained.

[5] = tested on: VEGF165-induced proliferation of HUVEC; test: Inhibition of VEGF165-stimulated HUVEC proliferation; assay type: cell-based, human
Method: FIG. 6. GST-Ex 7+8 fusion protein inhibits VEGF165-stimulated HUVEC proliferation. HUVEC were cultured in 96-well dishes (5,000 cell/well) as in FIG. 2. Increasing concentrations of VEGF165 (open circles), together with 15 ug/ml GST-Ex 7+8 (closed circles) or 25 ug/ml GST (squares), were added to the medium, and the cells were incubated for 4 more days. DNA synthesis was measured in HUVEC as described in FIG. 2. The results represent the average counts of three wells, and the standard deviations were determined.
as §3, §4

T1 sequence (O14786 22-923): as the sequence (O14786 22-923) above

## GST-Ex 7+8: GST fusion protein containing the peptide encoded by VEGF165 exons 7 and 8 (PCGPCSERRKHLFVQDPQTCKCSCKNTDSRCKARQLELNERTCRCDKPRR; cysteine pairing not given here; also: GST fusion protein, side of fusion not given here)
[1]; 125I-VEGF165 5 ng/ml, increasing concentrations of fusion protein, FIG. 3B
  inhibition of 125I-VEGF165 binding to 231 cells: 97-98%
[1]; cells express VEGF165R and not KDR/Flk-1
  VEGF165 binding to 231 breast cancer cells (in words): inhibits
[2]
  inhibition of 125I-VEGF165 binding to HUVEC: 85-95%
[3]
  direct binding to KDR/Flk-1 on HUVEC (in words): not and does not bind directly
[4]
  inhibition of the mitogenic activity of VEGF121 for HUVEC: about 50%
[4]; 15 ug/ml, FIG. 7
  inhibition of VEGF125-mediated HUVEC proliferation: about 2 fold
[5]; 15 ug/ml fusion protein added with VEGF165, FIG. 6
  reduction of VEGF165-induced HUVEC proliferation: about 60%
[5]; FIG. 7, 15 ug/ml
  inhibition of the level of VEGF165-induced mitogenicity: about 2 fold
